Assay results: the nanobody polyreactivity screen of Harvey et al. (2022)

Experiment: yeast display, Sf9 membrane polyspecificity reagent, FACS + sequencing; frameworks hold sequencing errors
Summary of the method: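 Galactose induction of a Saccharomyces cerevisiae BJ5465 synthetic nanobody display library ran 36–48 hours. The cells were then stained for 1 hour at 4 °C with 10% biotinylated, detergent-solubilized Sf9 membrane reagent, pulled down on streptavidin microbeads and FACS-sorted into low and high (top ~1%) gates on expression and reagent-binding fluorescence. Labels for polyreactivity follow the gate of origin.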

Row | Sequence | polyreactivity (PSR sort gate)
1 | QVQLVESGGGLVQAGGSLRLSCAASGRTFARNPMGWYRHAPGKERELVASIRWRGGSTYYADSVKGRFTISRDNAKNTVYLQMNRLKPEDTAVYYCATRYPYYVGRGYISYDYWGQGTQVTVSS | high polyreactivity
2 | QVQLGESGGGLVQAGGSLRLSCAASGSTFESYAMGWYRPAPGKEWELVAAINGGGRTYYADSVKGRFTISRDTAKNTVYLQMNSLNPEDTAVYYCAAEYRRGYYWPWGWEYYWGQGTQVTVSS | low polyreactivity
3 | QVQLVESGGGLVQAGGSLRLSCAASGSTLTVNVMGWYRHAPGKEREFVAAINDSGSTYYADSVKGRFTISRDNAKNTVYLQMNSLKPEDTAVYYCATYYWVGLSLYDYWGQGTQVTVSS | low polyreactivity
4 | QVQLVESGGGLVQAGGSLRLSCAASGSIFKRNAMGWYRQAPGKERELVASISSGGSTHYADSVKGRFTISRDNAKNTVYFQMNSLKPEDTAVYYCAATSIRWSVGSFRRDYWGQGTQVTVSS | low polyreactivity
5 | QVQLVESGGGLVQAGGSLRLSCAASGRIFYRYAMGWYRQAPGKERELVATMSWSGGSTYYADSVKGRFTISRDNAKNTVYVQMNSLKPEDTAVYYCNAAYGYVSRVYYLIEHDYWGQGTQVTVSS | high polyreactivity
6 | QVQLVESGGGLVQAGGSLRLSCAASRFNFDRNVSGWYRQEPGKERELVAAITGSGGRTYYADSVKGRFKISRDNAKNTVYLQMNSLKPEDTAVYYCARAFGQRRYVYWGQGTQVTVSS | high polyreactivity
7 | QVQLVESGGGLVQAGGSLRLSCAASGIIIYNYTMGWYRQAPGKERELVAAISRSGGRTYYADSVKGRFTISRDNAKNNVYLQMNSLKPEDTAVYYCAAAGYYHTYWGTMDFWGQGTQVTVSS | high polyreactivity
8 | QVQLVESGGGLVQAGGSLRLSCAASGYILFAYAMGWYRQAPGKERELVATITTSGGITYYADSVKGRFTISRDNAKNTVYLQMNSLKPDDTAVYYCAAAEGCGLVTYDYWGQGTQVTVSS | low polyreactivity
9 | QVQVVESGGGLVQAGGSLRLSCAASGGTFGGYAMGWYRQAPGKERELVAAISSGGSTYYADSVKGRFTISRDNAKNTLYLQMNSLKPEDTAVYYCAAETVLGYWYYRKYYYWGQGTQVTVSS | high polyreactivity
10 | QVQLVESGGGLDQAGGSLRLSCAASGITFTRNAMGWYRQAPGKERELVAAITKSGGGTYYADSVKGRFTISRDNAKNTVYLQMNSLKPEDTAVYYCAAYTDKYGDYNYWGQGTLVTVSS | high polyreactivity
11 | QVQLVESGGGLVQAGGSLRLSCAASRFIFGKYAMGWYRQAPGKEREFVAAITRSGGSTYYADSVKGRFTISRDNAKNTVYLQMNSLKPEDTAVYYCAAYSLKYYNGYDYWGQGTQVTVSS | high polyreactivity
12 | QVQLVESGGGLVQAGGSLRLSCAASGSIFERYAMGWYRQAPGKERELVAAISWSGGRTYYADSVKGRFTISRDYAKNTFFLQMNSLNPEDTAVYYCARVVQPGSPIYDYWGQGTQVTVSS | high polyreactivity
13 | QVQLVESGGGLVQAGGSLRLSCAASGRTFGVNAMGWYRQAPGKERELVAAISRSGGSTYYADSVKGRFTISRDNAKTTVYLQMNSLKPEDTEVYYCAKSYFGHHLTGFGYWGQGTQVTVSS | low polyreactivity
14 | QVQIVESGGGLVQAGGSLRLSCAASGSTFRLYVMGWYRQAPGKERELVARISSRGGSTYYADSVKGRFTISRDNAQNTVYLQMTSLKPEDTAVYYCAKDVDLDTWKYDYWGQGTKVTVSS | low polyreactivity
15 | QVQLVESGGGLVQAGGSLRLSCAASGSIFYPYVMGWYRQAPGKERELVATITWSGDDTNYADSVKGRFTISRDNAKNTVYLQMNSLKPEDTAVYYCAVGYGDYLYYDYDYWGQGTQVTVSS | low polyreactivity
16 | QVQLVESGGGLVQAGGSLRLSCAASGITLYGYAMGWYRQAPGKEREFVAAISRSGDRTYYADSVKGRFTISRDNAKNTVYLQMNSLKPEDTAVYYCNAWRYDYWGQGTQVTVSS | high polyreactivity
17 | QVQLVESGGVLVQAGGSLRLSCAASGSIFILYAMGWYRQAPGKERELVAAISSTGTTYYADSVKGRFTISRDNAKNTVYLQMNSLKPEDTAVYYCATDEHSSGRTPYDYWGQGTQVTVSS | low polyreactivity
18 | QVQLVESGGGLVQAGGSLRLSCAASGFTFDKNAMGWYRPAPGKERELVAAINIGSTYYADSVKGRFTISRDNAKNTVYLQMNRLKPEDTAVYYCAKEVPSGYWVNYYYWGQGTQVTVSS | low polyreactivity
19 | QVQLVESGGGVLQAGGSLRLSCAASGRIFYRYPMGWYRKAPGKVRELVAAISGSVGSTYADSVKGRLTISRDNAKNTVYLQMKSMKPEDTAVYYFDRETYRRYGAYDYWGQGTQVTVSS | low polyreactivity
20 | QVQLVESGGGLVQAGGSLRLSCAASGFTSGQYAMGWYRQAPGKERELVAAISWSGGSTYYADSVKGRFTISRDNAKNTVYLQMNSLKPEDTAVYYCAAGKTPQKYGGFNYWGQGTQVTVSS | high polyreactivity
21 | QVQLVESGGGLVQAGGSLRLSCAASGFTFAYYAMGWDRQAPGKERELVAAINWSGTRTSYADSVKGRFTISRDNAKNTVYLQMNSLKPEDTAVYYCAADSSLRYDYWGQGTQVTVSS | high polyreactivity
22 | QVQLVESGGGLVQAGGSLRLSCAASGITFYSYAMGWYRQAPGKERELVAAISSSGTTYYADSVKGRFTISRDNAKNTVYLQMNSLKPEDTAVYYCATDYSLGWYQDSDGGYQFDYWGQGTQVTVSS | high polyreactivity

Row | Sequence | polyreactivity (PSR sort gate)
23 | QGQLVESWGGLVQAGGSLRLSSDASGRTFSLYAMGWYRQAPGKQTELVASITDSTGGSTYYADSVKGRFTISRDNAKNTVYLQMNSLKPADTAVYYSAAQDYQYSDYQWWFGFWGQGTQVTVSS | low polyreactivity
24 | QVQLVESGGGLVQAGGSLSLSCAASGSTFYPYAMGWYRQAPGTERELVAAISSGGSTSYADSVKGRFTISRDNAKNTVYLQMNSLKPEDTAVYYCAAEGPEIKYYYWGQGTQVTVSL | low polyreactivity
25 | QVQLVESGGGLVQAGGSLRLSCGASGRTFRPYAMGWYRQEPGKERELVAAITGGTRTYYADSVKGRFTISRDNAKNTVYLQMNSLKAEDTAVYYCAVGWAGRYDYWGQGTQVTVSS | low polyreactivity
26 | QVHLVESGGGLVQAGGSLRLSCAASGFTFDYYAMGWYRQAPGKERELVAAISWSGASTYYADSVKGRFTISRDNAKNTVYLQMNSLKPEDTAVYYCNRPKWYDGDYWGQGTQVTVSS | high polyreactivity
27 | QVQLVESGGGLVQAGGSLRLSCAASGSTFWQYALGWYRQAPGKEREFVAAISSRGGSTYYADSVKGRFTISRDNAKNTVYLQMNSLKPEDTAVYYCAAQNYFAFIRTYRYVHRPTYYYWGQGTQVTVSS | high polyreactivity
28 | QVQLVESGGGLVQAGGSLRLSCDASGSTFRHYAMGWYRQAPGKERELVAAISSTGGSTYYADSVKGRFTISRDNAKNTVYLQMNSLKPEDTAVSYCAARRLYWGQGTQVTVSS | high polyreactivity
29 | QVQLVESGGGLVQAGGSLRLSCAASGSTFDYYAMGWYRQAPGKERELVAAITWSGGTTYYADSVKGRFTISRDNAKNTVYLQMNSLKPEDTAVYYCAAESTLPIIDRDDYWGQGTQVTVSS | low polyreactivity
30 | QVQLVESGGGLVQAGGSLRLSCAASGIIISLYAMGWYSQAPGKERELVATISTGGGTYYADSVKGRFTISRDNAKNTVYLQINSLKPEDTAVYYCAARRSYYGRSYYYWGQGTQVTVSS | high polyreactivity
31 | QVQLVESGGGLVQAGGSLRLSCAASGSIFQYNTMGWYRQAPGKESELVASISWRSGSTYYADSVKGRFTISRDNAKNTVYLQMNSLKPEDTAVYYCAAQVDPWWYDAGYDYWGQGTQVTVSS | low polyreactivity
32 | QVQLVESGRGLVQAGGSLRLSCAASGFTFPDNTMGRYRQAPGKERVLVAGIRRRGGSTYYADSVKGRFTISRDHAKKTVSLQMNSLKPEDTAVYYCAASRAVTQYSGGGYWGQGTQVTVSS | high polyreactivity
33 | QVQLVESGGGLVQAGGSLRLSCAASGRTFFRYAMGWYRQAPGKERELVADISKGGGSTYYADSVKGRFTISRDNAKNTVYLQMNSLKPEDTAVYYCAADQYYERDNFGAERYYWGQGTQVTVSS | high polyreactivity
34 | QVQLVESGGGLVQAGGSLRLSCAASGSIFLRYAMGWYRQAPGKERELVAAITTGGGSTYYADSVKGRFTISRDNAKNTDYLQMNSLKPVDTAVYYCAKRAQYHWRGRDDYSYYYWGQGTQVTVSS | low polyreactivity
35 | QVQLVESGGGLVQAGGSLRLSCAASGSTFWYAMGWYRQAPGKERELVAAITARGGRTYYADSVKGRFTISRDNAKNTVYLQMNSLKPEDTAVYYCARLSYAGGQWIIGKYDYWGQGTQVTVSS | high polyreactivity
36 | QVQLVESGGGLVQAGGSLRLSSAGSGSIFTGYAMGWYRPAPGKERELVAAIRTRGGSTYYADSVKGRFTISRDNAKNTVYLQMNSLKPEDNAVYYCANRYFGWYGNFDDWGQGTQVTVSS | high polyreactivity
37 | QVQLVESGGGLVQAGGSLRLSCAASGFIFRWYAMGWYRQAPGKERELVATITRGGGSTYYADSVKGRFTISRDNAKNTVYLQMNSLKPEDTAVYYCAKSVTGWRGLWYTPRNYYWGQGTQVTVSS | high polyreactivity
38 | QVQLVESGGGLVQAGGSLRLSCAASGSTLYGYAMGWYRQAPGKERELVAAISVSGGRTYYADSVKGRFTISRDNAKNTVYLQMNSLKPEDTAVYYCAAYGTTRMDYWGQGTQVTVSS | high polyreactivity
39 | HVQLQESGGVLVQARGSLRLSCAASGNISYSRNMGWYRQAPGKERELVDAIDRGAITYYADSVKGRFTISRDNANNTVYLQIYSLKPEDSAVYYCAAEYHDRWDHRYWGQGSQVTVSS | high polyreactivity
40 | QVHLVESGGGLVQAGGSLRLSCAASGSIKQNAMGWYRQAPGKERELVAAIDWDGSSTYYADSVKGRFTISRDNAKNTVYLQMNSLKPEDTAVYYCNTDYTGPDGTDEYDYWGQGTQVTVSS | low polyreactivity
41 | HVQLVDSGAGLVQAGGSLRLSCAASGRTFAYYAMGWYREATRKERELVAAIDSSGGSTYYADSVKGRFTISRDNAKNTVYLQMNSLKPEDTAVYYCAASYPYDRYDQGGYGYWGQGTQVTVSS | low polyreactivity
42 | QVKLVESGGGLVQAGGSLRLSCAAYGSTFAYNAMGWYRQAPGKERELVADISWSGGSTYYADSVKGRFTISRDNAKNTVYLQMNSLNPEDTAVYYCATEYSEGITQFFWATDYDYWGQGSQVTVSS | high polyreactivity
43 | QVQLVESGGGLVQAGGSLRLSCAASGRTIDRMLMGSYRQAPGKERELVAAITSGGRTNYADSVKGRFTISRDNAKNTVYLKMNSLKAEDTAFYYCARHGGRRPVSSKGNTYDYWGQGTQVTVLS | low polyreactivity
